Reference: patent US20040115622A1
No end group written: not given here.

Experiments:
[1] = target: HLA-DR molecule encoded by the allele DRB1*0701 (human); experiment: competition ELISA vs biotinylated YKL
[2] = target: HLA-DR molecule encoded by the allele DRB1*1101 (human); experiment: competition ELISA vs biotinylated HA 306-318
[3] = target: HLA-DR molecule encoded by the allele DRB1*0301 (human); experiment: competition ELISA vs biotinylated MT 2-16
[4] = target: T1, HLA-DR molecule encoded by the allele DRB3*0101 (human); experiment: competition ELISA vs biotinylated Lol 191-210
T1 chain 1: not shown
T1 chain 2: not shown

[5] = target: T2, HLA-DR molecule encoded by the allele DRB1*1301 (human); experiment: competition ELISA vs biotinylated B1 21-36
T2 chain 1: not shown
T2 chain 2: not shown

[6] = target: HLA-DR molecule encoded by the allele DRB1*0401 (human); experiment: competition ELISA vs biotinylated HA 306-318
[7] = target: HLA-DR molecule encoded by the allele DRB1*1501 (human); experiment: competition ELISA vs biotinylated A3 152-166
[8] = target: T3, HLA-DR molecule encoded by the allele DRB4*0101 (human); experiment: competition ELISA vs biotinylated E2/E168
T3 chain 1: not shown
T3 chain 2: not shown

[9] = target: HLA-DR molecule encoded by the allele DRB5*0101 (human); experiment: competition ELISA vs biotinylated HA 306-318
[10] = target: HLA-DR molecule encoded by the allele DRB1*0101 (human); experiment: competition ELISA vs biotinylated HA 306-318
[11] = target: T2, HLA-DR molecule encoded by the allele …; experiment: competition ELISA, nonbiotinylated peptide vs its biotinylated form

REVLEWRFDSRLAFH (modifications not checked) [Nef13.1 peptide (positions 178-192 of the HIV-1 Nef protein, Bru strain), P03406 178-192]
IC50 [1]: 350 nM
IC50 [2]: 8 nM
IC50 [3]: 125 nM
IC50 [4]: 28 nM
IC50 [5]: 867 nM

DPEREVLEWRFDSRLA (modifications not checked) [Nef12 peptide (positions 175-190 of the HIV-1 Nef protein, Bru strain), P03406 175-190]
IC50 [1]: 700 nM
IC50 [6]: 2500 nM
IC50 [2]: 125 nM
IC50 [3]: 3500 nM
IC50 [7]: 13 nM
IC50 [8]: 275 nM
IC50 [4]: 145 nM

AAVDLSHFLKEKGGL (modifications not checked) [Nef4.7 peptide (positions 83-97 of the HIV-1 Nef protein, Bru strain), P03406 83-97]
IC50 [2]: 7500 nM
IC50 [9]: 3250 nM
IC50 [10]: 500 nM

EWRFDSRLAFHHVAREL (modifications not checked) [Nef13 peptide (positions 182-198 of the HIV-1 Nef protein, Bru strain), P03406 182-198]
IC50 [1]: 150 nM
IC50 [6]: 3250 nM
IC50 [2]: 48 nM
IC50 [9]: 10 nM
IC50 [10]: 5000 nM
IC50 [3]: 55 nM
IC50 [8]: 6330 nM
IC50 [4]: 250 nM
IC50 [5]: 750 nM

VPVEPDKVEEANKGE (modifications not checked) [Nef10.5 peptide (positions 146-160 of the HIV-1 Nef protein, Bru strain), P03406 146-160]
IC50 [6]: 2000 nM
IC50 [10]: 550 nM
IC50 [3]: 2500 nM

FGWCYKLVPVEPDKV (modifications not checked) [Nef10.2 peptide (positions 139-153 of the HIV-1 Nef protein, Bru strain), P03406 139-153]
IC50 [1]: 120 nM
IC50 [6]: 250 nM
IC50 [2]: 250 nM
IC50 [9]: 900 nM
IC50 [10]: 85 nM
IC50 [8]: 605 nM

SSVVGWPTVRERMRR (modifications not checked) [Nef1.2 peptide (positions 8-22 of the HIV-1 Nef protein, Bru strain), P03406 8-22]
IC50 [2]: 7500 nM
IC50 [7]: 200 nM
IC50 [5]: 700 nM

SRLAFHHVARELHPE (modifications not checked) [Nef13.4 peptide (positions 187-201 of the HIV-1 Nef protein, Bru strain), P03406 187-201]
IC50 [1]: 225 nM
IC50 [2]: 6 nM
IC50 [9]: 300 nM
IC50 [5]: 350 nM

LTFGWCYKLVPVEPD (modifications not checked) [Nef10.1 peptide (positions 137-151 of the HIV-1 Nef protein, Bru strain), P03406 137-151]
IC50 [1]: 650 nM
IC50 [6]: 2000 nM
IC50 [2]: 95 nM
IC50 [9]: 4500 nM
IC50 [10]: 150 nM
IC50 [8]: 2200 nM

EANKGENTSLLHPVSLHGMDDPEREVLEWRF (modifications not checked) [Nef11 peptide (positions 155-185 of the HIV-1 Nef protein, Bru strain), P03406 155-185]
IC50 [1]: 3750 nM
IC50 [2]: 3000 nM
IC50 [9]: 3000 nM
IC50 [10]: 2000 nM
IC50 [7]: 50 nM
IC50 [8]: 450 nM

LEKHGAITSSNTAATNAACAWLEAQEEEEVGFPVT (modifications not checked) [Nef3 peptide (positions 37-71 of the HIV-1 Nef protein, Bru strain), P03406 37-71]
IC50 [1]: 3000 nM
IC50 [6]: 70 nM
IC50 [2]: 2000 nM
IC50 [10]: 2500 nM
IC50 [8]: 8000 nM

GVRYPLTFGWCYKLVP (modifications not checked) [Nef9 peptide (positions 132-147 of the HIV-1 Nef protein, Bru strain), P03406 132-147]
IC50 [1]: 5500 nM
IC50 [9]: 8000 nM
IC50 [10]: 8.5 nM
IC50 [7]: 1500 nM

TERVRLVTRHIYNREE (not fully specified) [B1 21-36 peptide, nonbiotinylated]
IC50 [11]: 330 nM

ERMRRAEPAADGVGA (modifications not checked) [Nef1.5 peptide (positions 18-32 of the HIV-1 Nef protein, Bru strain), P03406 18-32]
IC50 [10]: 2750 nM

GKWSKSSVVGWPTVR (modifications not checked) [Nef1.1 peptide (positions 3-17 of the HIV-1 Nef protein, Bru strain), P03406 3-17]
IC50 [1]: 48 nM
IC50 [6]: 700 nM
IC50 [2]: 1750 nM
IC50 [10]: 1250 nM
IC50 [7]: 150 nM
IC50 [5]: 3000 nM

WRFDSRLAFHHVARE (modifications not checked) [Nef13.3 peptide (positions 183-197 of the HIV-1 Nef protein, Bru strain), P03406 183-197]
IC50 [1]: 900 nM
IC50 [2]: 11 nM
IC50 [9]: 15 nM
IC50 [3]: 567 nM
IC50 [4]: 5000 nM
IC50 [5]: 250 nM

LIHSQRRQDILDLWI (modifications not checked) [Nef6 peptide (positions 100-114 of the HIV-1 Nef protein, Bru strain), P03406 100-114]
IC50 [2]: 3000 nM
IC50 [7]: 1750 nM
IC50 [8]: 1750 nM

PTVRERMRRAEPAAD (modifications not checked) [Nef1.4 peptide (positions 14-28 of the HIV-1 Nef protein, Bru strain), P03406 14-28]
IC50 [2]: 1250 nM
IC50 [10]: 1400 nM
IC50 [5]: 750 nM

VGWPTVRERMRRAEP (modifications not checked) [Nef1.3 peptide (positions 11-25 of the HIV-1 Nef protein, Bru strain), P03406 11-25]
IC50 [5]: 700 nM

FHHVARELHPEYFKN (modifications not checked) [Nef13.6 peptide (positions 191-205 of the HIV-1 Nef protein, Bru strain), P03406 191-205]
IC50 [1]: 2500 nM
IC50 [2]: 550 nM
IC50 [9]: 8000 nM
IC50 [3]: 700 nM
IC50 [5]: 3000 nM

DLSHFLKEKGGLEGL (modifications not checked) [Nef5 peptide (positions 86-100 of the HIV-1 Nef protein, Bru strain), P03406 86-100]
IC50 [9]: 8000 nM
IC50 [10]: 6000 nM

MGGKWSKSSVVGWPTVRERMRRAEPAADGVGAASRD (modifications not checked) [Nef1 peptide (positions 1-36 of the HIV-1 Nef protein, Bru strain), P03406 1-36]
IC50 [1]: 40 nM
IC50 [6]: 250 nM
IC50 [2]: 550 nM
IC50 [9]: 400 nM
IC50 [10]: 700 nM
IC50 [7]: 40 nM
IC50 [8]: 2500 nM
IC50 [5]: 325 nM

LTFGWCYKLVPVEPDKVEEANKGENTSLLHPV (modifications not checked) [Nef10 peptide (positions 137-168 of the HIV-1 Nef protein, Bru strain), P03406 137-168]
IC50 [1]: 65 nM
IC50 [6]: 150 nM
IC50 [2]: 45 nM
IC50 [9]: 250 nM
IC50 [10]: 650 nM
IC50 [3]: 175 nM
IC50 [7]: 1250 nM
IC50 [8]: 55 nM
IC50 [4]: 3500 nM

WCYKLVPVEPDKVEE (modifications not checked) [Nef10.3 peptide (positions 141-155 of the HIV-1 Nef protein, Bru strain), P03406 141-155]
IC50 [1]: 250 nM
IC50 [6]: 250 nM
IC50 [2]: 350 nM
IC50 [9]: 1500 nM
IC50 [10]: 850 nM
IC50 [8]: 1030 nM

LAFHHVARELHPEYF (modifications not checked) [Nef13.5 peptide (positions 189-203 of the HIV-1 Nef protein, Bru strain), P03406 189-203]
IC50 [1]: 250 nM
IC50 [2]: 8 nM
IC50 [9]: 600 nM
IC50 [3]: 1470 nM
IC50 [5]: 600 nM

YKLVPVEPDKVEEAN (modifications not checked) [Nef10.4 peptide (positions 143-157 of the HIV-1 Nef protein, Bru strain), P03406 143-157]
IC50 [1]: 2250 nM
IC50 [6]: 2750 nM
IC50 [10]: 9000 nM
IC50 [3]: 1470 nM
IC50 [8]: 1730 nM

PAADGVGAASRDLEK (modifications not checked) [Nef2 peptide (positions 25-39 of the HIV-1 Nef protein, Bru strain), P03406 25-39]
IC50 [3]: 4250 nM

LEWRFDSRLAFHHVA (modifications not checked) [Nef13.2 peptide (positions 181-195 of the HIV-1 Nef protein, Bru strain), P03406 181-195]
IC50 [1]: 933 nM
IC50 [2]: 18 nM
IC50 [9]: 6 nM
IC50 [3]: 73 nM
IC50 [4]: 60 nM
IC50 [5]: 350 nM

WIYHTQGYFPDWQNYT (modifications not checked) [Nef7 peptide (positions 113-128 of the HIV-1 Nef protein, Bru strain), P03406 113-128]
IC50 [1]: 4000 nM
IC50 [7]: 9000 nM
IC50 [4]: 75 nM

DKVEEANKGENTSLL (modifications not checked) [Nef10.6 peptide (positions 151-165 of the HIV-1 Nef protein, Bru strain), P03406 151-165]
IC50 [9]: 1500 nM

TQGYFPDWQNYTPGPG (modifications not checked) [Nef8 peptide (positions 117-132 of the HIV-1 Nef protein, Bru strain), P03406 117-132]
IC50 [6]: 8000 nM
IC50 [4]: 120 nM
